Experimental findings from the RNAGym collection of RNA variant scans (doi:10.1073/pnas.2313332121) are described below.

Sequences and labels used below:
B1: TPR t1 (parent)
chain: GACCAAUCUGCCCUCAGAGCUCGAGAACAUCUUCGGAUGCAGAGGAGGCAGGCUUCGGUGGCGCGAUAGCGCCAACGUCCUCAACCUCCAAUGCAUCCCACCACAUGAUGAUGCCUGAAGAGCCUUGGUUUUUUG

In the series the parent is B1. The experiment in a line: polymerase ribozyme fitness, log enrichment relative to wild type (log ratio); higher = more active; in vitro selection for triplet polymerase activity. The gist of the method:
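Libraries of mutants in each subunit of a heterodimeric triplet polymerase ribozyme were generated by PCR and transcribed. In triplicate, each went through one in vitro selection round: annealing with biotinylated primer, partner subunit and triplets; frozen incubation at −7 °C; gel excision of extended constructs; streptavidin-bead capture; RT-PCR. Fitness, taken from Illumina sequencing of input and output libraries, is the logarithm of a genotype's enrichment over wild-type enrichment, averaged across replicates with inverse-variance weights. The logarithm is base 2, and genotypes needed ≥10 input reads and ≥1 read per output to be kept.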
As to C11U G19U U54A A121C G135U, the “polymerase ribozyme fitness (log ratio)” value was -2.38.
Regarding C11G U96A U129G, the “polymerase ribozyme fitness (log ratio)” value is -2.87.
With C11U C13U A83C C97A, the “polymerase ribozyme fitness (log ratio)” value was -4.34.
As to C11U A18U, the “polymerase ribozyme fitness (log ratio)” value was -1.98.
For the variant C11U G19U C20A C104U G120U, the “polymerase ribozyme fitness (log ratio)” value was -4.29.
For the variant C11U A75G, the “polymerase ribozyme fitness (log ratio)” value is -0.146.
Take C11U C22G C40U U106G: the “polymerase ribozyme fitness (log ratio)” value was -4.43.
On to C11G U59C, for which the “polymerase ribozyme fitness (log ratio)” value was found to be 1.4.
Take C11U C20U C56A C88U C114U U131G: the “polymerase ribozyme fitness (log ratio)” value was -0.397.
Consider C11U C82U C104A U112A, for which the “polymerase ribozyme fitness (log ratio)” value worked out at 0.128.
The figure for C11U A43U G61U G63C C72G C88A C89U A111U is -6.46; for C11U C56A it is -0.322.
With C11U C56G, the “polymerase ribozyme fitness (log ratio)” value was -1.1.
Turning to C11U C15A C56G G69U, the “polymerase ribozyme fitness (log ratio)” value was -2.64.
As to C11U A66C, the “polymerase ribozyme fitness (log ratio)” value is -1.81.
With C11U C64A, the “polymerase ribozyme fitness (log ratio)” value is -4.93.
As for C11U A43U G110U U132A, the “polymerase ribozyme fitness (log ratio)” value is -3.03.
As for C11U C13G A66C C76G A118U C124A U133A, the “polymerase ribozyme fitness (log ratio)” value is -0.556.
The value for C11U C13G C114A was -4.11; that for C11U C22G A83C was -4.06.
In the case of C11U C114A C123U, the “polymerase ribozyme fitness (log ratio)” value was -2.21.
On to C11U A26U U55C A75G A83C, for which the “polymerase ribozyme fitness (log ratio)” value was -3.24.
With C11U C79U U81C C94A G120U, the “polymerase ribozyme fitness (log ratio)” value was -4.75.
As to C11U A84C U92G, the “polymerase ribozyme fitness (log ratio)” value was -3.8.
In the case of C11U C22A C73A A83U, the “polymerase ribozyme fitness (log ratio)” value was -5.9.
With C11U G17A A46G G57C C72U C115A G120C U134A, the “polymerase ribozyme fitness (log ratio)” value was -0.588.
For C11U C40G G48U G61C C97U G120U, the “polymerase ribozyme fitness (log ratio)” value is -4.02.
The value for C11G U92G was -2.49.
With C11U A41U G52U U125A, the “polymerase ribozyme fitness (log ratio)” value is -3.07.
With C11U C20A A37U G61A A83C C97A C98U U112C, the “polymerase ribozyme fitness (log ratio)” value was -7.47.
On to C11G U78C A90C, for which the “polymerase ribozyme fitness (log ratio)” value is -0.723.
Regarding C11G U59A C85A U87A, the “polymerase ribozyme fitness (log ratio)” value is -1.45.
As for C11U C97U G113A, the “polymerase ribozyme fitness (log ratio)” value is -1.74.
The figure for C11U A46G G51U C80U is -1.92; for C11U A83G it is -1.21; for C11U A29G C53U C73G it is -1.9.
C11U C12G C56A C88U: the “polymerase ribozyme fitness (log ratio)” value is -1.97.
As for C11U C124G, the “polymerase ribozyme fitness (log ratio)” value came out at 1.46.
The figure for C11U C124U is 1.63.
C11U A108G A118U: the “polymerase ribozyme fitness (log ratio)” value was -3.04.
Consider C11U C20A G61U U133G, for which the “polymerase ribozyme fitness (log ratio)” value was -2.19.
With C11U A50U G57A, the “polymerase ribozyme fitness (log ratio)” value is -1.89.
The value for C11U A27G C86U C115U was -7.32; that for C11G U33C C73U C99U A111C was -6.85; that for C11U A41U G63A U78C C88U C114U U131G was -6.29.
Turning to C11G U131G, the “polymerase ribozyme fitness (log ratio)” value is -0.902.
As to C11G U112C, the “polymerase ribozyme fitness (log ratio)” value amounted to 1.9.
Take C11G U109A G110C: the “polymerase ribozyme fitness (log ratio)” value was -4.59.
In the case of C11U C79G G93U, the “polymerase ribozyme fitness (log ratio)” value is -3.61.
On to C11U C40G C53U C62U C73G C79A C86U, for which the “polymerase ribozyme fitness (log ratio)” value is -4.3.
The figure for C11G U54C C62A A95C G128C is -3.23.
Consider C11U A26U, for which the “polymerase ribozyme fitness (log ratio)” value was -3.21.
The figure for C11U C40U G120A is -0.013; for C11G U30G U112A it is -4.82; for C11G U55A U59G U106G G117C it is -4.89.
For C11U G19A C49U C56U A66U C114U, the “polymerase ribozyme fitness (log ratio)” value was -2.83.
With C11U A26U C88A, the “polymerase ribozyme fitness (log ratio)” value is -4.34.
The value for C11U C34U C86G C102U A121U was -1.28.
For the variant C11U C101U, the “polymerase ribozyme fitness (log ratio)” value was -0.727.
Turning to C11U C40U C101A, the “polymerase ribozyme fitness (log ratio)” value was -2.4.
Take C11U C85A: the “polymerase ribozyme fitness (log ratio)” value was -2.42.
Consider C11U C49G A74U C123G, for which the “polymerase ribozyme fitness (log ratio)” value is 0.499.
The figure for C11U A26U U55C G71U is -3; for C11U A84U C89U it is -1.61.
Take C11G U32A G48U U96A C123A: the “polymerase ribozyme fitness (log ratio)” value is -5.24.
The figure for C11G U78C C114A G120C is -0.166; for C11G U129C it is -0.495; for C11U A37C G45U G58A U96A C101A it is -2.32.
For C11U C53U C73U C85A A121G C123G U126G U129C U130A, the “polymerase ribozyme fitness (log ratio)” value was -3.11.
Turning to C11U C12U A29U G110U G122C C123A, the “polymerase ribozyme fitness (log ratio)” value is -0.893.
The value for C11G U21A C72G G110A was -3.29; that for C11U A43U C53G G120A was -1.5.
With C11U C20U A27U, the “polymerase ribozyme fitness (log ratio)” value is -5.92.
As for C11U A43U A84U U112A G128C, the “polymerase ribozyme fitness (log ratio)” value is -3.29.
On to C11U A43G G63A, for which the “polymerase ribozyme fitness (log ratio)” value is -5.66.
The figure for C11U C53G C56U U87C G117U G120A G122A is -3.01; for C11U C56U A95G it is -0.936; for C11U A16U U54G U59C it is -3.88.
As for C11U A83C G93A G120A U131C, the “polymerase ribozyme fitness (log ratio)” value was 0.209.
On to C11U G17A, for which the “polymerase ribozyme fitness (log ratio)” value is -3.
The value for C11U C28U was -1.61; that for C11U C28A was -3.2; that for C11U A46U G47C G52U U55C G117U was -6.86.
For C11U C49G A95C, the “polymerase ribozyme fitness (log ratio)” value was -2.54.
